Measured values: US20240002495A1 (MITSUBISHI TANABE PHARMA, published 2024)

Tests used:
[1] = biological target: T1, recombinant human IL-33 protein (residues 112 to 270) (ILC0701, ATGen Co. Ltd) (human, UniProt O95760 112-270); test: cell-based or functional assay
T1 sequence: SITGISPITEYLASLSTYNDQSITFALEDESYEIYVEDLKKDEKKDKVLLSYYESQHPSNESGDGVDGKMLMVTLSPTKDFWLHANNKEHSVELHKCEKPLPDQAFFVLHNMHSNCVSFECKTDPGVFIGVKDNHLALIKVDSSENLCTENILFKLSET

[2] = biological target: T2, 6His-AviTag-linked cynomolgus monkey IL-33 (residues 112 to 269) (cynomolgus monkey, UniProt O95760 112-269 (human entry), biotin on the AviTag portion (BirA) in the SPR of Example 7; used without biotinylation in Example 10); test: cell-based or functional assay
T2 chain: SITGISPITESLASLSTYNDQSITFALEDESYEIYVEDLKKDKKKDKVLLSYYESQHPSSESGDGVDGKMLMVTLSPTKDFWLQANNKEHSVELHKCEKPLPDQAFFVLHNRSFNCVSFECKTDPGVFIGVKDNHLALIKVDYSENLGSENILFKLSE

[3] = biological target: T1, recombinant human IL-33 protein …; test: KinExA in PBS, neutral-purified IgG
Experimental: Each test antibody (IgG) (“antibody (IgG)” indicates an antibody having a molecular form of IgG; hereinafter, the same representation is used) was analyzed to confirm the affinity with the human IL-33 protein by measuring dissociation constant (Kd) between each test antibody and the human IL-33 protein in PBS by kinetic exclusion assay (KinExA) (KinExA3200, available from Sapidyne Instruments, Inc.). Mixture samples of a test antibody and a human IL-33 protein (ILC0701, available from ATGen Co. Ltd) were prepared. The human IL-33 protein was titrated to a constant concentration of test antibody (final concentration: several tens of pM to several hundreds of pM) over a wide concentration range of the human IL-33 protein (so that it covered the concentrations of the human IL-33 protein resulting from 12-step serial doubling dilutions, i.e. one- to 2048-fold, with the upper limit of final concentration set to several nM to several tens of nM). The mixture samples were incubated at a room temperature until the antigen-antibody reaction reached equilibrium. After the reaction reached equilibrium, the percentage of free anti-IL-33 antibody in each sample was analyzed using KinExA3200. The values of Kd were calculated by fitting the plot of percentages of anti-IL-33 antibody not bound to the human IL-33 protein (vertical axis) and concentrations of antigen (horizontal axis) to a theoretical formula, using a KinExA data analysis program (KinExA Pro Software v3.5.3, available from Sapidyne Instruments, Inc.). Beads for capturing the anti-IL-33 antibody were prepared by suspending 50 mg of Azlactone beads (Sapidyne) in 1 mL of coating solution (10 μg/mL human IL-33 protein (ILC0701, available from ATGen Co. Ltd), 50 mM sodium carbonate at pH of 9.6) and incubating the solution at a room temperature for one hour. The antibody for detection used was anti-human F(ab)′2-DyLight649 (Jackson, 309-495-006).

[4] = biological target: T3, full-length human IL-33 protein (human, UniProt O95760 1-270); test: KinExA in PBS, alkaline-purified IgG
T3 construct: also called Human IL-33 (Full-Length)
T3 sequence: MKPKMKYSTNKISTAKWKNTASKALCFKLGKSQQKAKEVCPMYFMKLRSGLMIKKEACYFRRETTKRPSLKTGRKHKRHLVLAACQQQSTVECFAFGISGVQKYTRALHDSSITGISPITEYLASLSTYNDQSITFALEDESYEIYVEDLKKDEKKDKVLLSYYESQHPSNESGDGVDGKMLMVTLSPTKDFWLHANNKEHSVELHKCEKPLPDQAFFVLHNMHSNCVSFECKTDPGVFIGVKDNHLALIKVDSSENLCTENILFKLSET
Experimental: Mixture samples of a test antibody and a human IL-33 protein (ILC0701, available from ATGen Co. Ltd) were prepared. The human IL-33 protein was titrated to a constant concentration of test antibody (final concentration: several tens of pM to several hundreds of pM) over a wide concentration range of the human IL-33 protein (so that it covered the concentrations of the human IL-33 protein resulting from 12-step serial doubling dilutions, i.e. one- to 2048-fold, with the upper limit of final concentration set to several nM to several tens of nM). The mixture samples were incubated at a room temperature until the antigen-antibody reaction reached equilibrium. After the reaction reached equilibrium, the percentage of free anti-IL-33 antibody in each sample was analyzed using KinExA3200. The values of Kd were calculated by fitting the plot of percentages of anti-IL-33 antibody not bound to the human IL-33 protein (vertical axis) and concentrations of antigen (horizontal axis) to a theoretical formula, using a KinExA data analysis program (KinExA Pro Software v3.5.3, available from Sapidyne Instruments, Inc.). Beads for capturing the anti-IL-33 antibody were prepared by suspending 50 mg of Azlactone beads (Sapidyne) in 1 mL of coating solution (10 μg/mL human IL-33 protein (ILC0701, available from ATGen Co. Ltd), 50 mM sodium carbonate at pH of 9.6) and incubating the solution at a room temperature for one hour. The antibody for detection used was anti-human F(ab)′2-DyLight649 (Jackson, 309-495-006).

B1: A10-1C04 (IgG) (antibody, V domains shown)
VH: EVQLLESGGGLVQPGGSLRLSCAASGFTFSDYYMNWVRQAPGKGLEWVSSISRYSSYIYYADSVKGRFTISRDNSKNTLYLQMNSLRAEDTAVYYCARDIGGMDVWGQGTLVTVSS
VL: QSVLTQPPSASGTPGQRVTISCTGSSSNIGAVYDVHWYQQLPGTAPKLLIYRNNQRPSGVPDRFSGSKSGTSASLAISGLRSEDEADYYCQTYDSSRWVFGGGTKLTVL
notes: tested as neutral-purified and as alkaline-purified antibody; also called V1; IGN1
IC50 of inhibition of IL-6 production by HUVEC (alkaline-purified IgG, human IL-33 100 ng/mL) [1]: 0.35 µg/mL
inhibition of IFN-γ production by human PBMC (alkaline-purified IgG 10 ug/mL, IL-33 10 ng/mL, IL-12 10 ng/mL) [1]: 96.9%
inhibition of production of IL-5 and IL-13 by KU-812 cells (alkaline-purified IgG 1 ug/mL; IL-33 3 ng/mL with IL-3 and C5a) [1]: ≥ 50%
percentage of inhibition (%) of IL-6 production by HUVEC (neutral-purified IgG 1 ug/mL, IL-33 100 ng/mL) [1]: 67%
IC50 of inhibition of IL-6 production by HUVEC (alkaline-purified IgG, cynomolgus monkey IL-33 100 ng/mL, not biotinylated) [2]: 0.43 µg/mL
Kd [3]: 0.166 nM
Kd [4]: 0.18 nM
